B1: RING finger protein 11 (Homo sapiens), Q9Y3C5 (parent)
chain: MGNCLKSPTSDDISLLHESQSDRASFGEGTEPDQEPPPPYQEQVPVPVYHPTPSQTRLATQLTEEEQIRIAQRIGLIQHLPKGVYDPGRDGSEKKIRECVICMMDFVYGDPIRFLPCMHIYHLDCIDDWLMRSFTCPSCMEPVDAALLSSYETN
partner: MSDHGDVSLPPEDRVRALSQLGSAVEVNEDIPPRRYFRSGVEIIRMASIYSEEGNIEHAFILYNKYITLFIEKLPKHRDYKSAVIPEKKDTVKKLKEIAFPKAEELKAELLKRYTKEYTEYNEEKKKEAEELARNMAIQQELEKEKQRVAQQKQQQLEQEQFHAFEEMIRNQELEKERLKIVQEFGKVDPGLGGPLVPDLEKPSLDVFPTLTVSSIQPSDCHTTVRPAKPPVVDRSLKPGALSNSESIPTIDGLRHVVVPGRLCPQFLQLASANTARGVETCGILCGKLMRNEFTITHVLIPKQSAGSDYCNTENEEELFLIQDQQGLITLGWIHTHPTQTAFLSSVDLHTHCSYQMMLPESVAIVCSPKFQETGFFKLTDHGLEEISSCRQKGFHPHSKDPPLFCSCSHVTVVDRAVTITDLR

Variants of: B1
Settings: with stabp_human STAMBP

Row | effect of a mutation on the interaction | Variant
1 | decreasing interaction | MGNCLKSPTSDDISLLHESQSDRASFGEGTEPDQEPPPPYQEQVPVPVYHPTPSQTRLATQLTEEEQIRIAQRIGLIQHLPKGVYDPGRDGSEKKIREAVICMMDFVYGDPIRFLPCMHIYHLDCIDDWLMRSFTCPSCMEPVDAALLSSYETN [C99A]

Source: IntAct's records for PubMed 14755250
